Measurements as given in publication PMC2362091, “Expression of V1A and GRP receptors leads to cellular transformation and increased sensitivity to substance-P analogue-induced growth inhibition” (British Journal of Cancer, 2005).

Molecular target: arginine vasopressin (AVP) (Homo sapiens), P01185
Assay: competition

Sequence of arginine vasopressin (AVP) (Homo sapiens), P01185 (P01185 whole entry, looked up): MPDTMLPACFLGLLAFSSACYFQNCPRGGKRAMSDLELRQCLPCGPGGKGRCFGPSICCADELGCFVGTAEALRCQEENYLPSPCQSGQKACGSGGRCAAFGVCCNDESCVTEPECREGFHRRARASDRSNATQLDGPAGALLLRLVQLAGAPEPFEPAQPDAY

B1: V1A receptor, P37288 (protein)
chain: MRLSAGPDAGPSGNSSPWWPLATGAGNTSREAEALGEGNGPPRDVRNEELAKLEIAVLAVTFAVAVLGNSSVLLALHRTPRKTSRMHLFIRHLSLADLAVAFFQVLPQMCWDITYRFRGPDWLCRVVKHLQVFGMFASAYMLVVMTADRYIAVCHPLKTLQQPARRSRLMIAAAWVLSFVLSTPQYFVFSMIEVNNVTKARDCWATFIQPWGSRAYVTWMTGGIFVAPVVILGTCYGFICYNIWCNVRGKTASRQSKGAEQAGVAFQKGFLLAPCVSSVKSISRAKIRTVKMTFVIVTAYIVCWAPFFIIQMWSVWDPMSVWTESENPTITITALLGSLNSCCNPWIYMFFSGHLLQDCVQSFPCCQNMKEKFNKEDTDSMSRRQTFYSNNRSPTNSTGMWKDSPKSSKSIKFIPVST
B1 was tested. Which Kd did it give?
The Kd was 2.98 nM.
